# Results published in PMC4108065, “Inflammation and pancreatic cancer: molecular and functional interactions between S100A8, S100A9, NT-S100A8 and TGFβ1” (Cell Communication and Signaling : CCS, 2014).
# Several values for one entry are separate records, joined by “and”; a condition that tells them apart may be missing. Equal values may be shown once.
# T1: S100A9, P06702
# T1 chain: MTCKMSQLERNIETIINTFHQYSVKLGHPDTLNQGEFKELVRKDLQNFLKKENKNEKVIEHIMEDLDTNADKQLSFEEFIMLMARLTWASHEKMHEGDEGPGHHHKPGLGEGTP
# Tests used:
# [1] = Degradation of the 2280 m/z peptide in Capan1 conditioned media (MALDI-TOF/MS); type: in vitro ADME, human; conditions: 37°C
# Method: (§1) To obtain BxPC3 and Capan1 conditioned media (CM), 400,000 cells were cultured (75 cm^2 flasks) for 96 hours in RPMI supplemented with 1% FCS and 0.1% gentamycin. In parallel, Ukrain (Nowicky Pharma, Wien, Austria) treated Capan1 CM were obtained as above, the difference being that Ukrain was added 24 hours after cells had been seeded at the final concentration of 5 μM. Complete culture media maintained in a cell culture incubator for 96 hours (negative control), Capan1 and Ukrain-treated Capan1 CM were centrifuged at 1,500 rpm for 10 min, and then immediately mixed with 3 μM S100A8 or 2.5 μM S100A9 (ProSpec-Tany TechnoGene, Ness Ziona, Israel) and maintained at 37°C overnight before MALDI-TOF/MS analyses. Complete culture media, BxPC3 and Capan1 CM, treated as described above, were incubated at 37°C with 200 μM of the S100A8 1–19 N-terminal aminoacid sequence (NT-S100A8) (Primm, Milano, Italy) for 1, 2, 3, 4, 5, 6, 12 and 24 hours before MALDI-TOF/MS analyses. At least three independent sets of experiments were performed for both assays.
# (§2) Cell culture media were first desalted and purified by ZipTip C18 pipette tips, following the procedure described in the ZipTip user’s guide. […]
# [2] = Degradation of the 2280 m/z peptide in BxPC3 conditioned media (MALDI-TOF/MS); type: in vitro ADME, human; conditions: 37°C
# Method: as §1, §2
# [3] = Stability of the 2280 m/z peptide in non-conditioned media (MALDI-TOF/MS); type: in vitro ADME; conditions: 200 μM, 37°C, time 0, MALDI-TOF/MS
# Method: as §1, §2
# S100A9, P06702 = target: T1, S100A9, P06702; assay: MALDI-TOF/MS of mixtures (linear positive ion mode); proteins and CaCl2 mixed at equimolar concentration (11.3 μM) in aqueous solution, incubated overnight at 37°C, diluted 1/10 in 0.1% TFA, sinapinic acid matrix; conditions: remark: other sources report otherwise
# [4] = target: the molecule itself; assay: as above
molecule,measurement,setting,value
"2280 m/z peptide: synthesized 1–19 N-terminal aminoacid sequence of S100A8, released by Capan1 conditioned medium (MLTELEKALNSIIDVYHKY; UniProt P05109 1-19, looked up, fragment)",time of degradation of the parental 2280 m/z peptide,"[1]; 200 μM peptide in Capan1 conditioned media (96 h, RPMI 1% FCS), MALDI-TOF/MS, TIC normalized",2 h
same,parental 19 aminoacid peptide after 24 hours' incubation,"[1]; 200 μM, Capan1 conditioned media, 24 hours, MALDI-TOF/MS 650–3000 m/z",disappeared
same,time of degradation of the parental 2280 m/z peptide,"[2]; 200 μM peptide in BxPC3 conditioned media (96 h, RPMI 1% FCS), MALDI-TOF/MS, TIC normalized",12 h
same,parental 19 aminoacid peptide after 24 hours' incubation,"[2]; 200 μM, BxPC3 conditioned media, 24 hours, MALDI-TOF/MS 650–3000 m/z",disappeared
same,abundance of the parental peptide at 2280 m/z (TIC normalized),[3],0.99
"S100A9, P06702 1-114 (natural protein) MTCKMSQLERNIETIINTFHQYSVKLGHPDTLNQGEFKELVRKDLQNFLKKENKNEKVIEHIMEDLDTNADKQLSFEEFIMLMARLTWASHEKMHEGDEGPGHHHKPGLGEGTP",stoichiometry N,"S100A9, P06702",2 and 3
"S100A8 (natural protein, UniProt P05109 1-93, looked up, Commercial recombinant protein; source: bought: ProSpec-Tany TechnoGene) MLTELEKALNSIIDVYHKYSLIKGNFHAVYRDDLKKLLETECPQYIRKKGADVWFKELDINTDGAVNFQEFLILVIKMGVAAHKKSHEESHKE",stoichiometry N,[4],2
